The results in this text go back to patent US20020119521A1.

What all share (assay): cell-based or functional assay
Experiment [1] concerns the target Full length MmRXR (mouse Mus musculus RXR alpha) (Mus musculus) (UniProt P28700).
In experiment [2] the target is VP16AD-CfUSPDEF chimeric polypeptide (Choristoneura fumiferana).
Experiment [3] has as its target VP16AD-MmRXRDEF chimeric polypeptide (Mus musculus).
The target in experiment [4] is VP16AD-CfEcRCDEF chimeric polypeptide (Choristoneura fumiferana).
The target of experiment [5] is VP16AD-DmEcRCDEF chimeric polypeptide (Drosophila melanogaster).
Experiment [6] has as its target T1, B42AD:MmRXR-DEF fusion (Mus musculus).
T1 sequence: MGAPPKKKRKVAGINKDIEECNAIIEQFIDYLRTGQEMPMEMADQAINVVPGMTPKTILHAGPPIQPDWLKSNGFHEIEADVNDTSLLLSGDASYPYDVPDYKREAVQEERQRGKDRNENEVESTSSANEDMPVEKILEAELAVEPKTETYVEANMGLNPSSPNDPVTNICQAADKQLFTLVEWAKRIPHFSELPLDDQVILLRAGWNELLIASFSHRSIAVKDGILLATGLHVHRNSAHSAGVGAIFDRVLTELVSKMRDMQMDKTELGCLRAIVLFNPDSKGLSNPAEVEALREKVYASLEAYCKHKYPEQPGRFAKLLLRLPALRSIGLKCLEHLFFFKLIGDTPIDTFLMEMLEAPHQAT

Take “Drosophila melanogaster EcR with a modified DNABD fused to VP16AD (DmVgRXR system, Invitrogen) (receptor)”: in experiment [1], the Mean Fold Activation Through N-(2-ethyl-3-methoxybenzoyl)-N'-(3,5-dimethylbenzoyl)-N'-t-butylhydrazine; pIND(SP1)LacZ reporter, 3T3 cells was 21 fold; the Mean Fold Activation Through N-(2-ethyl-3-methoxybenzoyl)-N'-(3,5-dimethylbenzoyl)-N'-t-butylhydrazine; pIND(SP1)LacZ reporter, 293 cells was determined as 21 fold; the Mean Fold Activation with 50 µM N-(2-ethyl-3-methoxybenzoyl)-N'-(3,5-dimethylbenzoyl)-N'-t-butylhydrazine; pIND(SP1)LacZ reporter, CHO cells was 14 fold.
Consider “Gal4DBD-CfEcRDEF chimeric polypeptide (receptor)”, for which, in experiment [2], the Mean Fold Activation Through N-(2-ethyl-3-methoxybenzoyl)-N'-(3,5-dimethylbenzoyl)-N'-t-butylhydrazine; pGAL4RELuc reporter, 3T3 cells was found to be 2 fold; the Mean Fold Activation Through N-(2-ethyl-3-methoxybenzoyl)-N'-(3,5-dimethylbenzoyl)-N'-t-butylhydrazine; pGAL4RELuc reporter, 293 cells came to 2 fold; the Mean Fold Activation with 50 µM N-(2-ethyl-3-methoxybenzoyl)-N'-(3,5-dimethylbenzoyl)-N'-t-butylhydrazine; pGAL4RELuc reporter, CHO cells turned out to be 2 fold. In experiment [3], this molecule had a Mean Fold Activation Through N-(2-ethyl-3-methoxybenzoyl)-N'-(3,5-dimethylbenzoyl)-N'-t-butylhydrazine; pGAL4RELuc reporter, 3T3 cells of 1120 fold; a Mean Fold Activation Through N-(2-ethyl-3-methoxybenzoyl)-N'-(3,5-dimethylbenzoyl)-N'-t-butylhydrazine; pGAL4RELuc reporter, 293 cells of 125 fold; a Mean Fold Activation with 50 µM N-(2-ethyl-3-methoxybenzoyl)-N'-(3,5-dimethylbenzoyl)-N'-t-butylhydrazine; pGAL4RELuc reporter, CHO cells of 267 fold; a Mean Fold Induction at 1.0 µM Concentration of Muristerone A; switch 1.1 in 3T3 cells of 1 fold. In experiment [3], the Mean Fold Induction at 1.0 µM Concentration of N'-(3,4-(1,2-ethylenedioxy)-2-methylbenzoyl)-N'-(3,5-dimethylbenzoyl)-N'-tert-butylhydrazine; switch 1.1 in 3T3 cells worked out at 601 fold, the Mean Fold Induction at 1.0 µM Concentration of N-(2-ethyl-3-methoxybenzoyl)-N'-(3,5-dimethylbenzoyl)-N'-tert-butylhydrazine; switch 1.1 in 3T3 cells is 116 fold, the Mean Fold Induction at 1.0 µM Concentration of Ponasterone A; switch 1.1 in 3T3 cells turned out to be 1 fold and the ligand concentration at which transactivation was initiated (non-steroid ligands) is under 1 µM. This molecule gave a ligand concentration at which transactivation was initiated (steroid ligands) in experiment [3] of 50 µM.
“Gal4DBD-CfUSPDEF chimeric polypeptide (receptor)”: in experiment [4], the Mean Fold Activation Through N-(2-ethyl-3-methoxybenzoyl)-N'-(3,5-dimethylbenzoyl)-N'-t-butylhydrazine; pGAL4RELuc reporter, 3T3 cells was 3 fold; the Mean Fold Activation Through N-(2-ethyl-3-methoxybenzoyl)-N'-(3,5-dimethylbenzoyl)-N'-t-butylhydrazine; pGAL4RELuc reporter, 293 cells was determined as 2 fold; the Mean Fold Activation with 50 µM N-(2-ethyl-3-methoxybenzoyl)-N'-(3,5-dimethylbenzoyl)-N'-t-butylhydrazine; pGAL4RELuc reporter, CHO cells worked out at 2 fold.
Regarding “Gal4DBD-MmRXRDEF chimeric polypeptide (receptor)”, in experiment [5], the Mean Fold Activation Through N-(2-ethyl-3-methoxybenzoyl)-N'-(3,5-dimethylbenzoyl)-N'-t-butylhydrazine; pGAL4RELuc reporter, 3T3 cells came to 269 fold; the Mean Fold Activation Through N-(2-ethyl-3-methoxybenzoyl)-N'-(3,5-dimethylbenzoyl)-N'-t-butylhydrazine; pGAL4RELuc reporter, 293 cells is 3 fold; the Mean Fold Activation with 50 µM N-(2-ethyl-3-methoxybenzoyl)-N'-(3,5-dimethylbenzoyl)-N'-t-butylhydrazine; pGAL4RELuc reporter, CHO cells was found to be 312 fold. In experiment [4], this molecule returned a Mean Fold Activation Through N-(2-ethyl-3-methoxybenzoyl)-N'-(3,5-dimethylbenzoyl)-N'-t-butylhydrazine; pGAL4RELuc reporter, 3T3 cells of 47 fold; a Mean Fold Activation Through N-(2-ethyl-3-methoxybenzoyl)-N'-(3,5-dimethylbenzoyl)-N'-t-butylhydrazine; pGAL4RELuc reporter, 293 cells of 17 fold; a Mean Fold Activation with 50 µM N-(2-ethyl-3-methoxybenzoyl)-N'-(3,5-dimethylbenzoyl)-N'-t-butylhydrazine; pGAL4RELuc reporter, CHO cells of 85 fold; a Mean Fold Induction at 1.0 µM Concentration of Muristerone A; switch 1.3 in 3T3 cells of 1 fold. For the same molecule, in experiment [4], the Mean Fold Induction at 1.0 µM Concentration of N'-(3,4-(1,2-ethylenedioxy)-2-methylbenzoyl)-N'-(3,5-dimethylbenzoyl)-N'-tert-butylhydrazine; switch 1.3 in 3T3 cells is 54 fold, the Mean Fold Induction at 1.0 µM Concentration of N-(2-ethyl-3-methoxybenzoyl)-N'-3,5-dimethylbenzoyl)-N'-tert-butylhydrazine; switch 1.3 in 3T3 cells was found to be 71 fold and the Mean Fold Induction at 1.0 µM Concentration of Ponasterone A; switch 1.3 in 3T3 cells is 1 fold.
In experiment [1], “Truncated CfEcR comprising a partial A/B domain and the complete CDEF domains, fused to VP16AD (CfVgRXR) (receptor)” came in with a Mean Fold Activation Through N-(2-ethyl-3-methoxybenzoyl)-N'-(3,5-dimethylbenzoyl)-N'-t-butylhydrazine; pIND(SP1)LacZ reporter, 3T3 cells of 19 fold; a Mean Fold Activation Through N-(2-ethyl-3-methoxybenzoyl)-N'-(3,5-dimethylbenzoyl)-N'-t-butylhydrazine; pIND(SP1)LacZ reporter, 293 cells of 12 fold; a Mean Fold Activation with 50 µM N-(2-ethyl-3-methoxybenzoyl)-N'-(3,5-dimethylbenzoyl)-N'-t-butylhydrazine; pIND(SP1)LacZ reporter, CHO cells of 27 fold.

B1: LexA:CfEcRDEF fusion (receptor)
chain: MKALTARQQEVFDLIRDHISQTGMPPTRAEIAQRLGFRSPNAAEEHLKALARKGVIEIVSGASRGIRLLQEEEEGLPLVGRVAAGEPLLAQQHIEGHYQVDPSLFKPNADFLLRVSGMSMKDIGIMDGDLLAVHKTQDVRNGQVVVARIDDEVTVKRLKKQGNKVELLPENSEFKPIVVDLRQQSFTIEGLAVGVIRNGDWLPECVVPETQCAMKRKEKKAQKEKDKLPVSTTTVDDHMPPIMQCEPPPPEAARIHEVVPRFLSDKLLETNRQKNIPQLTANQQFLIARLIWYQDGYEQPSDEDLKRITQTWQQADDENEESDTPFRQITEMTILTVQLIVEFAKGLPGFAKISQPDQITLLKACSSEVMMLRVARRYDAASDSVLFANNQAYTRDNYRKAGMAYVIEDLLHFCRCMYSMALDNIHYALLTAVVIFSDRPGLEQPQLVEEIQRYYLNTLRIYILNQLSGSARSSVIYGKILSILSELRTLGMQNSNMCISLKLKNRKLPPFLEEIWDVADMSHTQPPPILESPTNL
B1 had a fold induction of the LacZ reporter in a yeast two-hybrid assay with GS-E in experiment [6] of 1800 fold.
